Consider two molecules from patent publication US11471462B2, “Compositions and methods for detecting and treating diabetes” (THE BROAD INSTITUTE, INC., priority 2016, dated 2022).

This experiment deals with SLC16A11. The experiment can be described thus: SLC16A11 protein-protein interaction study (immunoprecipitation, quantitative mass spectrometry). As to conditions: putative SLC16A11^REF interaction partners; immunoprecipitation from HEK293T cells vs empty vector control; Blandt-Altman. Details: species or system human.

B1: EMC3 (protein)
chain: AGPELLLDSNIRLWVVLPIVIITFFVGMIRHYVSILLQSDKKLTQEQVSDSQVLIRSRVLRENGKYIPKQSFLTRKYYFNNPEDGFFKKTKRKVVPPSPMTDPTMLTDMMKGNVTNVLPMILIGGWINMTFSGFVTTKVPFPLTLRFKPMLQQGIELLTLDASWVSSASWYFLNVFGLRSIYSLILGQDNAADQSRMMQEQMTGAAMAMPADTNKAFKTEWEALELTDHQWALDDVEEELMAKDLHFEGMFKKELQTSIF
Regarding B1, the “BA log fold change” value stood at 1.65.

B2: SLC25A3 (protein)
chain: AVEEYSCEFGSAKYYALCGFGGVLSCGLTHTAVVPLDLVKCRMQVDPQKYKGIFNGFSVTLKEDGVRGLAKGWAPTFLGYSMQGLCKFGFYEVFKVLYSNMLGEENTYLWRTSLYLAASASAEFFADIALAPMEAAKVRIQTQPGYANTLRDAAPKMYKEEGLKAFYKGVAPLWMRQIPYTMMKFACFERTVEALYKFVVPKPRSECSKPEQLVVTFVAGYIAGVFCAIVSHPADSVVSVLNKEKGSSASLVLKRLGFKGVWKGLFARIIMIGTLTALQWFIYDSVKVYFRLPRPPPPEMPESLKKKLGLTQ
Consider B2, for which the “BA log fold change” value was 1.65.
